For this experiment, the target named is T1, 6His-She1 C-terminal fragment (residues 194-338) (S. cerevisiae, UniProt P38200 194-338).
T1 sequence (looked up): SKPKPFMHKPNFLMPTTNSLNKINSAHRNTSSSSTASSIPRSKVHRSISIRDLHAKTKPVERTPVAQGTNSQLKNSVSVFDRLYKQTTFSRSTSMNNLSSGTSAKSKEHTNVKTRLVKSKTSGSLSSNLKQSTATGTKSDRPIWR
Kind of experiment: pull-down.

The values that follow come from article PMC8684761 (Molecular Biology of the Cell, 2021).

B1: peptide encompassing the C-terminus of Tub1 (amino acids 415-447), wild type (peptide)
peptide: not shown
B1: the binding result was “binds”.
